Results: patent US20220409512A1, “ORAL CARE COMPOSITIONS FOR GUM HEALTH” (The Procter & Gamble Company, priority 2020, published 2022)

Tests used:
[1] = test system: Primary Human Gingival Fibroblasts; experiment: In-Vitro Human Gingival Fibroblasts Soluble Collagen Assay; format: cell-based; details: 72 hours
Description: Stage 1: Culturing Primary Human Gingival Fibroblasts (“HGF”): Primary Human Gingival Fibroblasts (“HGF”) were collected from tooth extraction patients and washed with 5 mL of PBS (phosphate buffered saline). The tissues were chopped into small pieces and placed into 15 mL centrifuge tube. The samples were digested with equal amounts of 1 mL 8% dispase and 1 mL 6% collagenase for 1 hr at 37° C., during which time the samples need to be shaken every 15 minutes. Once the digestion process was complete, the tube was centrifuged at 1100 r.p.m. for 6 minutes at room temperature. After centrifugation, a pellet of cells was formed in the bottom of the tube separating them from the supernatant solution. […] The petri dish with cells were placed in the incubator at 37° C. with 5% CO2 for about 10 days. The petri dish was checked for changes in medium color every two days. Fresh culture medium was replaced if changes in medium color occurred.
It was occasionally necessary to tap the petri dish to remove any sticky cells from the petri dish surface. At least 1 mL of fresh MEM culture medium was added to inactivate the trypsin and the cells are collected into a 15 mL centrifuge tube. The tube was then centrifuged at 1100 r.p.m. for 6 minutes at room temperature. […] Petri dishes were each placed with 1 mL cell suspension and 9 mL fresh MEM culture medium in the incubator at 37° C. with 5% CO2 for about 3-5 days until 80-90% cell monolayer coverage on the petri dishes was observed. […] 1 mL cell suspension and 1 mL fresh MEM culture medium were respectively added into each well of a 6-well plate. The cells were further washed with 2 mL PBS to remove any suspended cells until no suspended cells are visible. 2 mL culture medium, or 2 mL culture medium containing 1% Comparative Compositions or 2 mL culture medium containing 1% Inventive Compositions were added to the wells. Cells were maintained in the incubator at 37° C. with 5% CO2 for 72 hours.
After treatment, cells were washed two times with chilled PBS and homogenized with 6M urea. The cell homogenates were centrifuged at 15,000 r.p.m. for 15 min. 100 μL of the supernatant was mixed with 1 mL of Sircol Dye Reagent for 30 minutes. During this time period, a collagen-dye complex formed and precipitated out from the soluble unbound dye. The tubes were transferred to a microcentrifuge and spun at 12,000 r.p.m. for 10 minutes. The tubes were carefully inverted and drained. 750 μL ice-cold Acid-Salt Wash Reagent was gently added to the collagen-dye pellet to remove unbound dye from the surface of the pellet and the inside surface of the microcentrifuge tube. The tube was then centrifuged at 12,000 r.p.m. for 10 minutes. […]

COL1A2 = experiment: Compound Screening on Skin Dermis, collagen gene expression (microarray); format: in vivo, human; details: dorsal forearm twice daily, four weeks, retinol at 0.2%, Pal-KTTKS at 100 ppm, vs vehicle, p-value in brackets
Description: (§1) To screen compounds, 30 to 40 female subjects with Fitzpatrick skin types I-III, aged 60-70. At Baseline, each subject was assigned to test each treatment. The products were applied to the dorsal forearm twice daily. Topical treatment with a minimally efficacious moisturizer was used as the vehicle for each test compound and as the negative control.
(§2) After four weeks of treatment, one 4-mm punch biopsy was taken from each treated site. The dermis was separated and snap-frozen in liquid nitrogen and stored at −80° C. until assayed. The frozen tissue was then processed for gene expression analysis. To determine gene expression levels, RNA was extracted, labeled with biotin, hybridized and analyzed using Affymetrix GeneTitan® U219 microarray plates according to the manufacturer's instructions.
(§3) For genomics analysis, microarray sample quality was assessed using principal components analysis and MA-plots. Treatment to negative control comparisons for the microarray data were assessed using ANOVA models fitted separately for each probe set. ANOVA model hypothesis tests were evaluated using the Empirical Bayes method available in the limma R package. A p-value cutoff of 0.05 or less was consider statistically significant.

COL1A1 = experiment: as above; format: in vivo, human; details: dorsal forearm twice daily, four weeks, retinol at 0.2%, Pal-KTTKS at 100 ppm, vs vehicle, p-value in brackets
Description: as §1, §2, §3

Substance | Collagen Productivity (Collagen/Cell) ([1]; Table 5, 1% composition in culture medium, TGF-B 5 ppm) | Collagen Productivity (Collagen/Cell) ([1]; Table 6, 1:100 dilution, TGF-B 5 ppm) | Collagen Productivity (Collagen/Cell) ([1]; Table 7, 1:100 dilution, TGF-B 5 ppm) | Collagen Productivity (Collagen/Cell) ([1]; Table 9, 1:100 dilution, TGF-b 5 ppm) | COL1A2 LFC (Log base 2 of the average Fold Change) (COL1A2) | COL1A1 LFC (Log base 2 of the average Fold Change) (COL1A1)
TGF-B | 5.17 | 4.86 | 4.86 | 5.17 |  | 
palmitoyl-lys-thr-thr-lys-ser [Pal-KTTKS] |  |  |  |  | −0.048 (0.91) | −0.15 (0.44)
